Patent publication US20210371499A1 (University of California, published 2021)

Target: l[…]/HLA-A*02:01 (l = D-leucine) (human)
Test: SEC TAPBPR binding assay

B1: TAPasin Binding Protein Related (TAPBPR), luminal domain, His6-tagged (other)
chain: KPHPAEGQWRAVDVVLDCFLAKDGAHRGALASSEDRARASLVLKQVPVLDDGSLEDFTDFQGGTLAQDDPPIIFEASVDLVQIPQAEALLHADCSGKEVTCEISRYFLQMTETTVKTAAWFMANMQVSGGGPSISLVMKTPRVTKNEALWHPTLNLPLSPQGTVRTAVEFQVMTQTQSLSFLLGSSASLDCGFSMAPGLDLISVEWRLQHKGRGQLVYSWTAGQGQAVRKGATLEPAQLGMARDASLTLPGLTIQDEGTYICQITTSLYRAQQIIQLNIQASPKVRLSLANEALLPTLICDIAGYYPLDVVVTWTREELGGSPAQVSGASFSSLRQSVAGTYSISSSLTAEPGSAGATYTCQVTHISLEEPLGASTQVVPPERR
notes: domain: luminal domain; Molecular chaperone; also called TAPBR; HIS-Tagged TAPBPR; not shown: His6 tag
  binding result: no binding
